Reference: patent US20210347908A1 (ELPISCIENCE SUZHOU BIOPHARMA, published 2021)
Numbering of substitutions follows the chain as printed.

T1: full length C57BL/6 mouse SIRPα stably expressed on CHOK1 cells (mouse (C57BL/6), UniProt P97797 32-513)
T1 construct: whole, on cells; also called CHOK1-C57BL/6 mouse SIRPα-2.22 cells
T1 sequence (looked up): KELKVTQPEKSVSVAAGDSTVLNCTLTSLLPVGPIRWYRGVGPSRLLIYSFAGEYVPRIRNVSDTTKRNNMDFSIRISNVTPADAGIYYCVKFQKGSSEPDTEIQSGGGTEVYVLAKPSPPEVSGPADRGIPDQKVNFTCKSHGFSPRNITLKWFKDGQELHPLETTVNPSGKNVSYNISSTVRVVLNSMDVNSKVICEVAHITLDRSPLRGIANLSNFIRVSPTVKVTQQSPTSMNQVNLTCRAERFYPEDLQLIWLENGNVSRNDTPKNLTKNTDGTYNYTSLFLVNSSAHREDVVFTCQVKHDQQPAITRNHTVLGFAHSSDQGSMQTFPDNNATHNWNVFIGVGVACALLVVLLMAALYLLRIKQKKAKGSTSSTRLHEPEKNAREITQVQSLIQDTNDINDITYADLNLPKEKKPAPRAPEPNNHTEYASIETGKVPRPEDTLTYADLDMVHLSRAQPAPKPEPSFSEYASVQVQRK

T2: full length cyno SIRPα stably expressed on CHOK1 cells (cynomolgus monkey, UniProt A0A2K5VYQ9 31-507)
T2 construct: whole, on cells; also called CHOK1-cyno SIRPα-2A2 cells; CHOK1-cyno SIRPα
T2 sequence: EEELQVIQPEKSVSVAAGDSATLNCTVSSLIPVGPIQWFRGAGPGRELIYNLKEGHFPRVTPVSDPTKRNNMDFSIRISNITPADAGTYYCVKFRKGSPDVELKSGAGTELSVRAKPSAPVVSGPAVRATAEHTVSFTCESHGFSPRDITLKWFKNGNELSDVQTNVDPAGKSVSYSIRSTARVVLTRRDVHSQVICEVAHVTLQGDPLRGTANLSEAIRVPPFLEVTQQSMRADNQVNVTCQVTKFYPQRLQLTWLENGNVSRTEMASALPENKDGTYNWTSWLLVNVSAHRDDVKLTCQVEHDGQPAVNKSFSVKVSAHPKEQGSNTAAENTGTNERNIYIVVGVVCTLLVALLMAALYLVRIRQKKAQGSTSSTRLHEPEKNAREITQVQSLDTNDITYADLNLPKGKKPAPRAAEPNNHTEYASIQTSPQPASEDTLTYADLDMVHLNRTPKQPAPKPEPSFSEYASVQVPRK

B1: reference antibody KWAR23 (antibody, V domains shown)
VH: EVQLQQSGAELVKPGASVKLSCTASGFNIKDYYIHWVQQRTEQGLEWIGRIDPEDGETKYAPKFQDKATITADTSSNTAYLHLSSLTSEDTAVYYCARWGAYWGQGTLVTVSS
VL: QIVLTQSPAIMSASPGEKVTLTCSASSSVSSSYLYWYQQKPGSSPKLWIYSTSNLASGVPARFSGSGSGTSYSLTISSMEAEDAASYFCHQWSSYPRTFGAGTKLELK
B2: chimeric antibody 074c (antibody, V domains shown)
VH: QVQLQQPRAELVKPGASVMLSCKASGYTFSSYWIHWVRQGPGQGLEWIGLIHPNSGNTDCSETFKNKATLTVDTSSSTAYMQLSSLASEDSAVYYCARDGASYDWFVHWGQGTLVTVSA
VL: not shown
B3: chimeric antibody 035c (antibody, V domains shown)
VH: QIQLVQSGPELRKPGETVKISCKASGYSFTNYAMNWVKQAPGKVLKWMGFINTYTGEPTYADDFKGRFAFSLETSASTAYLQINNLKNEDTATYFCTRTRGYYDFDGGAFDYWGQGTSLTVSS
VL: DIVMTQSQKFMSTSIGDRVSVTCKASQNVGTHLAWYQQKPGQSPKALIFSASYRYIGVPDRFTGSGSGTDFTLTITNVQSEDLAEYFCQQYNTYPLTFGAGTKLELK
B4: chimeric antibody 050c (antibody, V domains shown)
VH: QIQLVQSGPELKKPGETVKISCKASGYTFTHYSMHWVKQAPGKGLKWMGWINTETAEPTYVDDFKGRFAFSLEASASTAFFQINNLKNEDTATYFCARGGLRQGDYWGQGTTLTVSS
VL: B1 VL with A9P, S26T, S31A, Y37F, S78N, A81P, E82A, R97Y, A101G, L107I
B5: chimeric antibody 055c (antibody, V domains shown)
VH: EVKLVESEGGLVQPGDSMKLSCTASGFTFSDYFMTWIRQVPEKGLEWIANVNYDGRSTYYLDSLKSRFIISRDNANNILYLQMSSLKSEDTATYYCAREGSQTPLYAVDYWGQGTSVTVSS
VL: DIVMTQSQKFMSTTVGDRVNITCKASQNVGTAVAWYQQKPGQSPKLLIYLASNRYTGVPDRFTGSGSGTDFTLTVSDMRSEDLADYFCQQYSIYPFTFGSGTKLEIK
B6: chimeric antibody 001c (antibody, V domains shown)
VH: EVKLEESGGGLVQPGGSMKLSCVASGFTFRNYWMNWVRQSPERGLEWIAEISLKSNTYATHYAESVKGRFAISRDGSKSSFYLQMNDLRAEDTGIYYCTTFTKVVADWHLDVWGAGTTVTVSS
VL: DVLMTQTPLSLPVSLGDQASISCRSSQNIVHSNGNTYLEWYLQKPGQSPKLLIYKVSNRFSGVPDRFSGSGSGTDFTLRISRVEAEDLGVYYCFQGSHVPFTFGSGTKLEIK
B7: chimeric antibody 032c (antibody, V domains shown)
VH: B6 VH with K3R, A24V, S52T, G76D, A90P
VL: B6 VL with S14N
B8: chimeric antibody 002c (antibody, V domains shown)
VH: B6 VH with K19I, S52T, G76D, A90P
VL: B6 VL with V56I, K112Q
B9: chimeric antibody 022c (antibody, V domains shown)
VH: QIQLVQSGPELKKPGETVKISCKASGYTFTDYAMHWVKQAPGKGLKWMGWKNTETGESTYAEDFKGRFAFFLETSASTAYLQINNVKNEDTATYFCARGGYGSNYVMDYWGQGTSVIVSS
VL: DIQMTQSSSSFSVSLGDRVTITCKASEDIYNRLAWYQQKPGNAPRLLISGATSLETGVPSRFSGSGSGKDYTLSITSLQTEDVATYYCQQYWNSPRTFGGGTKLEIK
B10: chimeric antibody 060c (antibody, V domains shown)
VH: QVQLKESGPGLVAPSESLSITCTVSGFSLTNYDISWIRQSPGKGLEWLGVIWTGGDTNFNSAFMSRLSISKDKSKSQVFLKLNSLQTDDTAIYYCVRVQYFGGSYGPMDYWGQGISVTVSS
VL: DIQMTQASSYLSVSLGGRVTITCEASDHINDWLAWYQQTPGNAPRLLISGATSLETGVPSRFSGSGSGKDYTLSITSLQTEDIATYYCQQYWNTPLTFGAGTRLELK

What follows are binders tested against T3, biotin labeled soluble human SIRPα v1 ECD recombinant protein (human, UniProt P78324 31-373, biotin labeled) (assay: competitive ELISA; competitor 055).
T3 construct: extracellular domain
Experimental: (§1) Competitive ELISA assay was used for epitope binning of 9 functional antibodies. Briefly excessive competitor antibody and biotin labeled soluble human SIRPα v1 ECD recombinant protein were co-incubated with ELISA microplate coated antibody. After washing, HRP-SA was added and incubated at 37° C. for 1 hour. Then, […] of TMB solution (Biotechnology) was added. After incubation for 15 minutes at room temperature, the reaction was stopped by the addition of […] of 1N HCl. OD 450 nm was read. Competition ratio was calculated. The antibodies that can compete each other for binding to SIRPα have the similar binding epitope.

% Competition	Binder
1%	B1

The binders below were run against T4, chimeric SIRPα of B-hSIRPA mice (IgV domain of human SIRPα); IgC1/C2, transmembrane and intracellular domains … (human; mouse, UniProt P78324 31-149; P97797 151-513, limits assumed) (assay: FACS on spleen cells of B-hSIRPA mice, anti-human IgG secondary antibody, gated on mCD11b/mF4/80 double positive monocytes).
T4 construct: domain: IgV domain;domain: IgC1/C2, transmembrane and intracellular domains; whole, on cells (mCD11b+ mF4/80+ spleen monocytes); also called B-hSIRPA mice derived primary monocytes
Experimental: The humanized mice express a chimeric SIRPα, comprised of IgV domain of human SIRPα and IgC1/C2, transmembrane and intracellular domains of mouse SIRPα. Briefly spleen cells of B-hSIRPA mice were harvested and incubated with anti-SIRPα chimeric antibodies at 4° C. for 1 hour. After washing, fluorescence labeled anti-human IgG 2nd antibody (Life Technologies) was added and incubated at 4° C. for 1 hour. […] Anti-SIRPα positive staining population in mCD11b and mF4/80 double positive subset was calculated.

Positive Staining Population (% in mCD11b, mF4/80 double positive subset)	binding result	Binder
0.14%	no binding	B2
91.3%	–	B3
0.16%	no binding	B4
0.13%	no binding	B5
91%	–	B6
91.5%	–	B7
88.9%	–	B8
–	no binding	B9
86%	–	B10

What follows are binders tested against T1, full length C57BL/6 mouse SIRPα stably … (assay: FACS on CHOK1 cells).

MFI at 2 ug/ml	Binder
310 MFI	B3

What follows are binders tested against T2, full length cyno SIRPα stably expressed … (assay: FACS on CHOK1 cells).

EC50	Binder
0.42 nM	B3

These binders were tested against T3, biotin labeled soluble human SIRPα v1 … (assay: competitive ELISA; competitor 022).
Experimental: as §1

% Competition	Binder
6%	B1

These binders were tested against T3, biotin labeled soluble human SIRPα v1 … (assay: competitive ELISA; competitor 050).
Experimental: as §1

% Competition	Binder
5%	B1

Each binder was assayed against 6×His tagged human SIRPα v2 ECD recombinant protein (human) (assay: SPR (Biacore)).
Experimental: (§2) Anti-SIRPα chimeric antibodies were characterized for binding affinity against human SIRPα v1, human SIRPα v2 and C57BL/6 mouse SIRPα using Biacore (GE). Briefly the antibodies to be tested were captured to CM5 chip (GE) using Human Antibody Capture Kit (GE). The antigens of 6×His tagged human SIRPα v1, human SIRPα v2 and C57BL/6 mouse SIRPα ECD recombinant proteins were serially diluted for multiple doses and injected at 30 μl/min for 180 s. Buffer flow was maintained for dissociation of 400 s. 3 M MgCl₂ was used for chip regeneration. The association and dissociation curves were fit with 1:1 binding model, and the Ka/Kd/KD values for each antibody were calculated.

Kd	Binder
25.2 nM	B2
2.62 nM	B3
4.72 nM	B4
14.7 nM	B1
28.5 nM	B5
20.6 nM	B6
14.7 nM	B7
28.3 nM	B8
25.6 nM	B9

Each binder was assayed against T5, 6×His tagged human SIRPα v1 ECD recombinant protein (human, UniProt P78324 31-373) (assay: SPR (Biacore)).
T5 construct: extracellular domain; bought; also called hSIRPα V1 (SPR antigen)
Experimental: as §2

Kd	Binder
4.4 nM	B2
1.11 nM	B3
3.07 nM	B4
2.66 nM	B1
16.6 nM	B5
11.4 nM	B6
8.92 nM	B7
16.1 nM	B8
5.9 nM	B9
1.49 nM	B10

The binders below were run against T3, biotin labeled soluble human SIRPα v1 … (assay: competitive ELISA; competitor 060).
Experimental: as §1

% Competition	Binder
5%	B1
